Experiment: yeast display, Sf9 membrane polyspecificity reagent, FACS + sequencing; frameworks hold sequencing errors
In short: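 Galactose induction of a Saccharomyces cerevisiae BJ5465 synthetic nanobody display library ran 36–48 hours. The cells were then stained for 1 hour at 4 °C with 10% biotinylated, detergent-solubilized Sf9 membrane reagent, pulled down on streptavidin microbeads and FACS-sorted into low and high (top ~1%) gates on expression and reagent-binding fluorescence. Labels for polyreactivity follow the gate of origin.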

QVQLVESGGGLVQAGGSLRLSCAASGTTFYHNVMGWYRQAPGKERELVASIDTGDSTNYADSVKGRFTISRDNAKNTVYLQMNSLKPEDTAVYYCNADSYPALNKRGYDYWGQGTQVTVSS
polyreactivity (PSR sort gate): low polyreactivity

QVQLVESGGGLVQAGGSLRLSCAASGTTFYKYSMGWYRQAPGKERELVAAITSRGDRTYYADSVKGRFTISRDNANNTVYLQMNSLKPEDTAVYYCAATRWRDAGHSYDYWGQGTQVTVSS
polyreactivity (PSR sort gate): high polyreactivity

QVQLVESGGGLVQAGGSLRLSCAASGTTFYPNAMGWYRQAPGKERELVAAISWSGGRTYYADSVKGRFTISRDNAKNTVYLQMNSLKPEDTAVYYCNRYHRTSWRAKYDYWGQGTQVTVSS
polyreactivity (PSR sort gate): high polyreactivity

QVQLVESGGGLVQAGGSLRLSCAASGTTLVIYAMGWYRQAPGKERELVAAINFSDGSTSYADSVKGRFTKSRDNAKNTVYLQMISLKPEDTAVYYWGQGTQVTVSS
polyreactivity (PSR sort gate): low polyreactivity

QVQLVESGGGLVQAGGSLRLSCAASGTYFGYAMGWYRQAPGKETELVAAITSGGSTYYADSVKGRFTISRDNAKNTVYLQMNSLKPEDTADYYCARVYSRWSYRYDYWGQGSQVTVSS
polyreactivity (PSR sort gate): low polyreactivity

QVQLVESGGGLVQAGGSLRLSCAASGTYTNAMGWYRQAPGKERELVAAISSTVGRTYYADSVKGRFTISRDNAKNPVYLQMNSLKPEDTAVYYCATTHGRTYYYWGQGTLVTVSS
polyreactivity (PSR sort gate): high polyreactivity

QVQLVESGGGLVQAGGSLRLSCAASGVIFDFNAMGWYRQAPGKERELAASISRSGGSTYYADSVKGRFTISRDNAKNTVYLQMNSLKPEDTAVYYCAKASKGQYRFDYWGQGTQVTVSS
polyreactivity (PSR sort gate): low polyreactivity

QVQLVESGGGLVQAGGSLRLSCAASGVTFVDYAMGWYRQAPGKERELVAAITVSGDSTYYADSVKGRFTLSRDNAKNTVYLQMNSLKPEDTAVYYCAADPGYYDGGYWGQGTQVTVSS
polyreactivity (PSR sort gate): low polyreactivity

QVQLVESGGGLVQAGGSLRLSCAASGVYAMGWYRQAPGQERELVAAITSVGSTNYADSVKGRFTISRDNAKNTVYLQMNSLKPEDTAVYYCNTDRDTDELDYWGQGTQVTVSS
polyreactivity (PSR sort gate): low polyreactivity

QVQLVESGGGLVQAGGSLRLSCAASGYFDLNAMGWYRQAPGKERELVAAITDGGSTNYADSVKGRFTISRDNAKNTVYLQMNSLKPEDTAVYYCAADRGHTILHGGHWGQGTQVTVSS
polyreactivity (PSR sort gate): low polyreactivity

QVQLVESGGGLVQAGGSLRLSCAASGYIFAAYTMGWYRQAPGKEREFVAAITRSGGSTYYADSVKWRFTISRDNAKNTVYLQMNSLKPEDTAVYYCAARRWRYFPDYDYWGQGTQVTVSS
polyreactivity (PSR sort gate): high polyreactivity

QVQLVESGGGLVQAGGSLRLSCAASGYIFAINAMGWYRQAPGKERELVAAIRSGGRTYYADSVKGRFTISRDKAKNTVYLQMNSLKPEDTAVYYCNAGGKWIGSDYWGQGTQVTVSS
polyreactivity (PSR sort gate): high polyreactivity

QVQLVESGGGLVQAGGSLRLSCAASGYIFAIYAMGCYRQAPGKERELVAAISTSGGSTYYADSVKGRFTISRDNAKNTVYLQMNSLKPDDTAVYYCARPTTYGYYYWGQGTQVTVSS
polyreactivity (PSR sort gate): high polyreactivity

QVQLVESGGGLVQAGGSLRLSCAASGYIFDDYAMGWYRQAPGKERELVAAISRGGSTYYADSVKGRFTISRDNSKNTVYLQMNSLKPEDTEVYYCAAVYRVRRITYVYWGQGTQVTVSS
polyreactivity (PSR sort gate): high polyreactivity

QVQLVESGGGLVQAGGSLRLSCAASGYIFDKNAMGWYRQAPGKERELVAAITSSGGRTYYADSVKGRFTISRDNAKNTVYLQMNSLKPEDTAVYYCNKLYRTSGEYVYWGQGTQVTVSS
polyreactivity (PSR sort gate): high polyreactivity

QVQLVESGGGLVQAGGSLRLSCAASGYIFDPNAMGWYRQAPGKERELVAAISGSGTSTYYADSVKGRFTISRDNAKNTVYLQMNSLKPEDTAVYYCAAAHDAGPVRYYYWGHGTQVTVSS
polyreactivity (PSR sort gate): low polyreactivity

QVQLVESGGGLVQAGGSLRLSCAASGYIFGHYTMGWYRPAPGKEGELVAGITRGTRTYYADSVKGRFTISRDNAKNTVYLQMNSLKPEDTAVYYCAKRGPVRTQYTYYYWGQGTQVTVSS
polyreactivity (PSR sort gate): high polyreactivity

QVQLVESGGGLVQAGGSLRLSCAASGYIFGPYAMGWYRQAPGKERELVAAITWRGGRTYADSVKGRFTISRDNAKNTVYLQMNSLKPEDTAVYFCATETGYSPFVYYSGRYGYWGQGTQVNVSS
polyreactivity (PSR sort gate): high polyreactivity

QVQLVESGGGLVQAGGSLRLSCAASGYIFGQNAMGWYRPAPRKERELVASISDGGSTYYADSVKGRFTISRDNAKNTVYLQMNSLKPEDTAVYYCAAGQYWGEKALGAWLFDYWGQGTQLTVSS
polyreactivity (PSR sort gate): low polyreactivity

QVQLVESGGGLVQAGGSLRLSCAASGYIFGQNARGLYRQAPGKERELGASMSDGGSTYYADSVKGRFTISRDNAKNTVYLQLNSLKPEDTAVYYCAAYYSYGSTSHTYTCFDYWGQGTQVTVSS
polyreactivity (PSR sort gate): low polyreactivity

QVQLVESGGGLVQAGGSLRLSCAASGYIFGQYAMGWYRQAPGKERELVADITRGGDTYYADSVKGRFTISRDNAKNTVYLQMNSLKPEDTAVYYCAAEQGRTSYRYYYWGQGTQVTVSS
polyreactivity (PSR sort gate): high polyreactivity

QVQLVESGGGLVQAGGSLRLSCAASGYIFGRNAMGWYRQAPGKEREFVAAISYSGSSTYYADSVKGRFTISRDNAKNTVYLQMNSLKPEDTAVYYCNAVYYRSRFGTSIRYDYWGQGTQVTVSS
polyreactivity (PSR sort gate): high polyreactivity

QVQLVESGGGLVQAGGSLRLSCAASGYIFGYNAMGWYRPAPGKERELVATITWRGGSTYYADSVKGRFTISRDNAKNTVYLQMNSLKPEDTAVYYCAAVRWVRYRTSAYEYWGQGTQVTVSS
polyreactivity (PSR sort gate): high polyreactivity

QVQLVESGGGLVQAGGSLRLSCAASGYIFGYYTMGWYRQAPGKERELVATIRSGGSTYYADSVKGRFTISRDNAKNTVYLQMNSLKPEDTAVYYWAKRVRRISEYGYWGQGTQVTVSS
polyreactivity (PSR sort gate): high polyreactivity

QVQLVESGGGLVQAGGSLRLSCAASGYIFGYYVMGWYRQAPGKERELVAAISGRGGRTYYADSVKGRFTISRDNAKNTVYLQMNSLKPEDTAVYYCAAADLPGTMYYWGQGTQVTVSS
polyreactivity (PSR sort gate): high polyreactivity

QVQLVESGGGLVQAGGSLRLSCAASGYIFHRYVMGWYRQAPGKERELVASISWSGGSTYYADSVKGRFTISRDNAKNTVYLQMTSLKPEDTAVYYCGALSPYRRGYYWGQGTQVTVSS
polyreactivity (PSR sort gate): high polyreactivity

QVQLVESGGGLVQAGGSLRLSCAASGYIFKFYTMGWYRQAPGKERELVAAISRSGGSTYYADSVKGRFTISRDNAKNTVYLQLNSLKPEDTAVYYCARPRTRQGDYWGQGSQVTVSS
polyreactivity (PSR sort gate): high polyreactivity

QVQLVESGGGLVQAGGSLRLSCAASGYIFKKYAMGWYRQAPGKEREFVAAISISGGRTYYADSVKGRFTISRDNAKNTVYLQMNSLKPEDTAVYYCNKVHYGRRHSYSGAIYGEDYWGQGTQVTVSS
polyreactivity (PSR sort gate): high polyreactivity

QVQLVESGGGLVQAGGSLRLSCAASGYIFKSNVMGWYRQAPGKERELVAAITTDGSTYYADSVKGRFTISRDNAKNTVYLQMNSLKPEDTAVYYCAAGKAYWYARKPYARYYYWGQGTQVTVSS
polyreactivity (PSR sort gate): high polyreactivity

QVQLVESGGGLVQAGGSLRLSCAASGYIFLRNAMGWYRQAPGKERELVAAIRRTGGSTYADSVKGRFTISRDNAKNTVYLQMNSLKPEDTAVYYCNAGYLLYYDYHLFYWVQGTQVTVSS
polyreactivity (PSR sort gate): low polyreactivity

QVQLVESGGGLVQAGGSLRLSCAASGYIFLTNAMGWYRQAPGKERELVAAISVSGGRTYYADSVKGRFTISRDNAKNTVYLQMNSLKPEDTAVYYCNTLLTYGYDYWGQGTQVTVSS
polyreactivity (PSR sort gate): low polyreactivity

QVQLVESGGGLVQAGGSLRLSCAASGYIFLYSTMGWYRQAPGKERELVAAITIGGGTYYADSVKGRFTISRDNAKNTVYLQMNSLKPEDTAVYYCNADYASYYRYSRPLEMNYWGQGTQVTVSS
polyreactivity (PSR sort gate): low polyreactivity

QVQLVESGGGLVQAGGSLRLSCAASGYIFNKYVMGWYRQAPGKERELVAAISASGGSTYYADSVKGRFTISRDNAKNTVYLQMNSLKPEDTAVYYCAATLYRRMDYWGQGTEVTVSS
polyreactivity (PSR sort gate): high polyreactivity

QVQLVESGGGLVQAGGSLRLSCAASGYIFPKNAIGWYRQAPWKERELVAAITGSGGSTYYADSVKGRFTISRDNAKNTVYLQMNSLKPEDTAVYYCAKRSWIEYDYWGQGTQVTVSS
polyreactivity (PSR sort gate): low polyreactivity

QVQLVESGGGLVQAGGSLRLSCAASGYIFPSNTMGWSIQAPGKERELVATISRSGVSTYYADSVKGRFTISRDYAKNTVYLHMYSLKPDDTAVYYCAASTVYYYRSKWLSSFDYWGQGTQVTVSS
polyreactivity (PSR sort gate): low polyreactivity

QVQLVESGGGLVQAGGSLRLSCAASGYIFRFNAMGWYRQAPGKERELVAVITSGARTYYADSVKGRFTISRDNAKNTVYLQMNSLKPEDTAVYYCNAGARRYLYDYWGQGTQVTVSS
polyreactivity (PSR sort gate): low polyreactivity

QVQLVESGGGLVQAGGSLRLSCAASGYIFRGYVMGWYRQAPGKERELVAAITSRGDSTYYADSVKGRFTISRDNAKNTVYLQMNSLKPEDTAVYYCNAVHYYVEYDYWGQGTEVTVSS
polyreactivity (PSR sort gate): high polyreactivity

QVQLVESGGGLVQAGGSLRLSCAASGYIFRLNAMGWYRQAAGKERELLAGISTGGRTNYADSVKGRFTISRDNAKNTVNLQMNSLTPEDTAVYYCAAAWHTASWVGSDSLGGGYWGQGTQVTVSS
polyreactivity (PSR sort gate): low polyreactivity

QVQLVESGGGLVQAGGSLRLSCAASGYIFRLYTMGWYRQAPGKERELVAAISYSGGSTYYADSVKGRFTISRDNAKNTVYLQMNSLKPEDTAVYYCAAEDWRGYRWIRYGYWGQGTQVTVSS
polyreactivity (PSR sort gate): low polyreactivity

QVQLVESGGGLVQAGGSLRLSCAASGYIFSANAMGWYRQAPGKEREFVAAISSTGGSTYYADSVKGRFTISRDNAKNTVYLQMNSLKPEDTAVYYCAAYIRRYFHYDYWGQGTQVTVSS
polyreactivity (PSR sort gate): high polyreactivity

QVQLVESGGGLVQAGGSLRLSCAASGYIFSGYAMGWYRQAPGKERELVAAISSSGGRTYYADSVKGRFTISRDNAKNTVYLQMNSLKPEDTAVYYCATVPRKTPGNAELDYWGQGTQVTVSS
polyreactivity (PSR sort gate): high polyreactivity

QVQLVESGGGLVQAGGSLRLSCAASGYIFSLNGMGWYRQEPVKERELVAAITVSGGRTYYADSVKGRFTISRDNAKNTVYLQMNSLKPEDTAVYYCAKRGKYSYWPYYKYDYWGQGTQVTVSS
polyreactivity (PSR sort gate): high polyreactivity

QVQLVESGGGLVQAGGSLRLSCAASGYIFSYNAMGWYRQAPGKERELVAAITGDSGTYYADSVKGRFTISRDNAKNTVYLQMNSLKPEDTAVYYCATDPYIFPVFYDLYWGYNYWGQGTQVTVSS
polyreactivity (PSR sort gate): low polyreactivity
